Data on one substance can be found in article PMC4210639.

In the assay the target is FLRT^LRR (SPR test of FLRT^LRR-FLRT^LRR binding). The assay can be described thus: SPR. Background: In SPR one partner is held on a chip, and binding of the other changes the refractive index at the surface.

Bounds are passed on as bounds.

A word on the Kd: it is the equilibrium constant for the complex coming apart. A lower Kd goes with tighter binding. For the substance “FLRT^LRR (SPR test of FLRT^LRR-FLRT^LRR binding)”, the Kd was > 100 µM.
